According to patent US20220259593A1, “CONTROL OF MAMMALIAN GENE DOSAGE USING CRISPR” (The Regents of the University of California, priority 2019, published 2022):

Tested on: K562 CRISPRi cells
Assay: Constant region variant library pooled growth screen, K562
Type: cell-based, human
Method in brief: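 Growth screens in K562 CRISPRi cells were harvested 4-8 days post-selection at >2000× library coverage. Each variant's phenotype was referenced to the unmodified constant region with the same targeting sequence.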

[1] = sgRNA constant region variant, activity relative to unmodified constant region cr995, mean CRISPRi activity
[2] = sgRNA constant region variants, activity relative to the original, un-modified constant region cr995

Molecule	Mean relative activity [1]	Mean relative activity [2]
cr649 (nucleic acid, listed as DNA, chemistry not fully specified) guide: GTTTAAGAGCTAAGCTGGAAACAGCATAGCAACTTTAAATAAGGTTAATCCGTTATCAACTTGAAAAAGTGGCACCGAGTCGGTGCT	0.01138	
cr475 (nucleic acid, listed as DNA, chemistry not fully specified) guide: GTTTAAGAGCTAAGCTGGAAACAGCATAGCAAGTTTAAATTAGGCTAGTCCGTTATCAACTTGATAAAGTGGCACCGAGTCGGTGCT	0.0113	
cr704 (nucleic acid, listed as DNA, chemistry not fully specified) guide: GTTTAAGAGCTAAGCTGGAAACAGCATAGCAAGTTTAAATAAGGCTAGTCCGTTATCAACTTGAAAAAGCGGCACCGAGTCGGTGCT		1.033
cr613 (nucleic acid, listed as DNA, chemistry not fully specified) guide: GTTTAAGAGCTAAGCTGGAAACAGCATAGCAAGTTTAAATAACGGTACTCGGTTATCAACTTGAAAAAGTGGCACCGAGTCGGTGCT	0.01125	
cr750 (nucleic acid, listed as DNA, chemistry not fully specified) guide: GTTTAAGAGCTAAGCTGGAAACAGCATAGCAAGGTTAAATAAGGCTAGTCCGTTATCAATTTGAAAAAATGGCACCGAGTCGGTGCT	0.01125	
cr663 (nucleic acid, listed as DNA, chemistry not fully specified) guide: GTTTAAGAGCTAAGCTGGAAACAGCATAGCAAGGTTAAATAAGGCTAGTCCGTTATCAACTTGAAAAAGTGGCACCTAGTAGGTGCT	0.01081	
cr445 (nucleic acid, listed as DNA, chemistry not fully specified) guide: GTTTAAGAGCTAAGCTGGAAACAGCATAGCAAGTTTAAATAAGGCTAGTCCGTTATCAACTTGAAAAAGTGGCATCCAGTTGCTGCT	0.01078	
cr509 (nucleic acid, listed as DNA, chemistry not fully specified) guide: GTTTAAGAGCTAAGCTGGAAACAGCATAGCAAGTTTAAATAACGCTAGTCGGTTATCAACTTGAAAAAGTGGCAACGAGTCGTTGCT	0.01061	
cr044 (nucleic acid, listed as DNA, chemistry not fully specified) guide: GTGTAAGTGCTAAGCTGGAAACAGCATAGCAAGTTTAAATAAGGCTAGTCCGTTATCAACTTGAAAAAGTGGCACCGAGTCGGTGCT	0.01046	
cr860 (nucleic acid, listed as DNA, chemistry not fully specified) guide: GTTTAAGAGCTAAGCTGGAAACAGCATAGCAAGCTTAAATAAAGCTAGTCTGTTATCAACTTGAAAAAGTGGCACCGAGTCGGTGCT	0.01022	
cr524 (nucleic acid, listed as DNA, chemistry not fully specified) guide: GTTTAAGAGCTAAGCTGGAAACAGCATAGCAAGTTTAAATAAGGCTAGTCCGTTATCAACTTGTAAAAGTGGCACCGAGTCGGTGCT		1.032
cr949 (nucleic acid, listed as DNA, chemistry not fully specified) guide: GTTTAAGAGCTAAGCTGGAAACAGCATAGCAAGGTTAAATAAGGCTAGTCCGTTATCAACTTGATAAAGTGGCACCGAGTCGGTGCT	0.01022	
cr250 (nucleic acid, listed as DNA, chemistry not fully specified) guide: GTTTAAGAGCTAAGCTGGAAACAGCATAGCAAGTTTAAATAAGGCTAGACCGTTATCAACTTGAAAAAGTCGCACCGAGGCGGTGCT	0.01012	
cr067 (nucleic acid, listed as DNA, chemistry not fully specified) guide: CTTGAAGAGCTAAGCTGGAAACAGCATAGCAAGTTTAAATAAGGCTAGTCCGTTATCAACTTGAAAAAGTGGCACCGAGTCGGTGCT	0.01012	
cr795 (nucleic acid, listed as DNA, chemistry not fully specified) guide: GTTTAAGAGCTAAGCTGGAAACAGCATAGCAAGTTTAAATAATGCTAGTCAGTTATCAACTTGAAAAAGTGTCTCCGAGTCGGAGAT	0.009911	
cr587 (nucleic acid, listed as DNA, chemistry not fully specified) guide: GTTTAAGAGCTAAGCTGGAAACAGCATAGCAAGTTTAAATAAGCCTAGTCCGTTATCAACTTGAAAAAGTGGCACCGAGTCGGTGCT	0.009805	
cr993 (nucleic acid, listed as DNA, chemistry not fully specified) guide: GTTTAAGAGCTAAGCTGGAAACAGCATAGCAACTTTAAATAAGGCTAGTCCGTTATCATCTTGAAAAAGAGGCACCGAGTCGGTGCT	0.00969	
cr130 (nucleic acid, listed as DNA, chemistry not fully specified) guide: GTTTAAGAGCTAAGCTGGAAACAGCATAGCATTTTTAAATAAGGCTAGTCCGTTATCAACTTGAAAAAGTGGCACCGAGTCGGTGCT	0.009507	
cr328 (nucleic acid, listed as DNA, chemistry not fully specified) guide: GTTTAAGAGCTAAGCTGGAAACAGCATAGCAACTTTAAATAAGGCTAGTCCGTTATCAACTTGAAAAAGTGGCCCCGAGTCGGGGCT	0.009384	
cr054 (nucleic acid, listed as DNA, chemistry not fully specified) guide: GTTTAACCGCTAAGCTGGAAACAGCATAGCAAGTTTAAATAAGGCTAGTCCGTTATCAACTTGAAAAAGTGGCACCGAGTCGGTGCT		1.032
cr187 (nucleic acid, listed as DNA, chemistry not fully specified) guide: GTTTAAGAGCTAAGCTGGAAACAGCATAGCAAGGTTAAATAAGGCTAGTCCGTTATCAACTTGAAAAAGTGGCACCAAGTTGGTGCT	0.00928	
cr052 (nucleic acid, listed as DNA, chemistry not fully specified) guide: ATGTAAGAGCTAAGCTGGAAACAGCATAGCAAGTTTAAATAAGGCTAGTCCGTTATCAACTTGAAAAAGTGGCACCGAGTCGGTGCT	0.009238	
